Test results from patent US20040146931.

Test system: Gal11P-P53zf zinc finger (artificial)
Test: cell_activity
Conditions: EGFP over control, in vivo site selection

| Sequence | binding | binding (matches the consensus) |
| --- | --- | --- |
| CGGGACACGGG (double strand) [in vivo selected P53zf site 3] | > 2 fold | – |
| CGGGACACGTG (double strand) [in vivo selected P53zf site 1] | – | > 2 fold |
| CGGGACATGTG (double strand) [in vivo selected P53zf site 2] | > 2 fold | – |
